The values below come from article PMC11880807.

Common to all, as to test: MST
For series [1], the target named is T1, EXOG-ΔC68 (human, UniProt Q9Y2C4 59-300).
T1 sequence: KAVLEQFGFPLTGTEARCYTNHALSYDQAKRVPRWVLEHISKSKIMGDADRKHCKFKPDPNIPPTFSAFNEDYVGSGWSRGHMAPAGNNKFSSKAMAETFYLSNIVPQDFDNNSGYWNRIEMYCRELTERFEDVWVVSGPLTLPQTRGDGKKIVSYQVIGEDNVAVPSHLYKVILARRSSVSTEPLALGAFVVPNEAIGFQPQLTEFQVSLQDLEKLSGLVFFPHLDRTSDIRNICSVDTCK

For series [2], the target named is T2, EXOG (EXOG-ΔN58) (human, UniProt Q9Y2C4 59-368).
T2 sequence: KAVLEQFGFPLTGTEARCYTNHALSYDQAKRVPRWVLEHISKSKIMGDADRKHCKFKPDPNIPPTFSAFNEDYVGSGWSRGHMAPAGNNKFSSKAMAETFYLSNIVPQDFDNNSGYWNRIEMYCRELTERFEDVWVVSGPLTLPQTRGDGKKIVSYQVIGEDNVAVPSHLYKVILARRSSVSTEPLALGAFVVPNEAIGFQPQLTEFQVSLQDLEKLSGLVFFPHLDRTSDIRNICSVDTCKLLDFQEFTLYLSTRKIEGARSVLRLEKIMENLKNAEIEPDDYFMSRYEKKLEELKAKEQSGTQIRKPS

Series [3] concerns the target T1, EXOG-ΔC68. The source holds these as a separate data set.

For orientation: Kd means the constant that tells how readily two partners part at equilibrium. High values mean lower affinity, low ones higher affinity. AGUUCGUUAUCGUCGC (ssRNA) [ssRNA 16-mer O11] came in with a dissociation constant (Kd) in series [1] of 0.155 ± 0.0319 µM.
In series [2], AGTTCGTTATCGTCGC (ssDNA) [ssDNA 16-mer O10] returned a Kd of 0.0251 ± 0.0045 µM. The binding result in series [3] is “no binding”.
